{"source": "paper PMC8240452", "molecular_target": "SARS-CoV-2 spike receptor-binding domain (RBD) (SARS-CoV-2, UniProt P0DTC2 319-541)", "assay": "40 min incubation, immobilized aptamer"}
{"binder": "SARS-CoV-2 RBD aptamer, amine-terminated (ssDNA, 5'-NH2-(CH2)6) DNA: CAGCACCGACCTTGTGCTTTGGGAGTGCTGGTCCAAGGGCGTTAATGGACA", "values": [{"measurement": "Kd", "result": 3.4, "unit": "nM"}]}
